This note sets out measurements from US7067277B1, “Chimeric G proteins and uses thereof” (H. Lundbeck A/S, priority 1999, dated 2006).

Test in all cases: Calcium mobilization (FLIPR, Fluo-3) in transfected COS-7 cells
What all share (format): cell-based
(A change in cytosolic calcium serves as a functional read-out for many receptors and channels.)

One test concerns the target h 5HT7 (Homo sapiens, UniProt P34969). The settings on record: h 5HT7 + chimera in COS-7; agonist 5HT, max 100 μM. Summed up: (§1)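 Assay buffer was HBSS with 20 mM HEPES (pH 7.4), 0.1% BSA and 2.5 mM probenecid, and cells were loaded with 4 μM Fluo-3. Transfected COS-7 cells carried receptor and chimeric G protein cDNA at 1:1 or 8:1:1 ratios. Peak fluorescence change gave Hill-fitted curves.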

A further test deals with T1, h GALR2 (Homo sapiens, UniProt O43603).
T1 construct: expressed in transfected cells; host or cells: COS-7
T1 sequence (O43603 1-387): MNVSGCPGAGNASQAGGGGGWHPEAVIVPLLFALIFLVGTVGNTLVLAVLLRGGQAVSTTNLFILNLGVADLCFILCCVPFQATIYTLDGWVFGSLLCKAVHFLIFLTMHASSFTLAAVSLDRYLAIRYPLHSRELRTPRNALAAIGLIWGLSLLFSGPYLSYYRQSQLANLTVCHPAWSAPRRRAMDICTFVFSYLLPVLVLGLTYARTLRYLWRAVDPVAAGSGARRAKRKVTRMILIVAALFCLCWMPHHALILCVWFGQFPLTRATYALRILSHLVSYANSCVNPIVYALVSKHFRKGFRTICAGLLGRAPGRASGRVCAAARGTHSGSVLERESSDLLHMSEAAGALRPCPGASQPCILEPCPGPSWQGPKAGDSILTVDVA
Conditions: h GALR2 + chimera in COS-7; agonist GAL, max 10 μM. Summed up:
as §1

In a further test the target is T2, h GALR3 (Homo sapiens, UniProt O60755).
T2 sequence (O60755 1-368): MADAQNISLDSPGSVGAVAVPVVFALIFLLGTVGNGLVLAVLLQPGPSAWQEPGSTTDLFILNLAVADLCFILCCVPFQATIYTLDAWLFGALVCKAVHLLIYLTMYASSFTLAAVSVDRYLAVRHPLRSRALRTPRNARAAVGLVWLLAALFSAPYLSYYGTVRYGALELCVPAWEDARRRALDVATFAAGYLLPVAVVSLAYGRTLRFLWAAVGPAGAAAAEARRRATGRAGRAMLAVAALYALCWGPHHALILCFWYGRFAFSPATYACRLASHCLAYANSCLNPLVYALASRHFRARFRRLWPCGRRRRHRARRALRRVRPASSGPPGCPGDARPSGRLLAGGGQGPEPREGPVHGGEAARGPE
Conditions: h GALR3 + chimera in COS-7; agonist GAL, max 10 μM. Summed up:
as §1

Another test addresses T3, h α1A adr (Homo sapiens, UniProt P35348).
T3 construct: expressed in transfected cells; host or cells: COS-7
T3 sequence (P35348 1-466): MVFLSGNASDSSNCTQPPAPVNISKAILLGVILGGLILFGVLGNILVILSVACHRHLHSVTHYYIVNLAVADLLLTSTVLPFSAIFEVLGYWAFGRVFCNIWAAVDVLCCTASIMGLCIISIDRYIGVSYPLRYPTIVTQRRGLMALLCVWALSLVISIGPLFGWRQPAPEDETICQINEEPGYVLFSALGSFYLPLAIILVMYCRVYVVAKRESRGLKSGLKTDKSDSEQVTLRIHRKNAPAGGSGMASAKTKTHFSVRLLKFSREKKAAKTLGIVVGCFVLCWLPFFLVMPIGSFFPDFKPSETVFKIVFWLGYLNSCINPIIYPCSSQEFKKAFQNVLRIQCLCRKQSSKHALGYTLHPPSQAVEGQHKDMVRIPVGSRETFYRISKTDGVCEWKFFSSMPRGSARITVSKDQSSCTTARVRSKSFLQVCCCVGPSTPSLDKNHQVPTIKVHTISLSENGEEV
Conditions: h α1A adr + chimera in COS-7; agonist NE, max 100 μM. In short, it runs like this:
as §1

For the next test, the target named is m 5HT5B (Mus musculus, UniProt P31387). Conditions: m 5HT5B + chimera in COS-7; agonist 5HT, max 100 μM. Summed up: as §1
Sequence of m 5HT5B (P31387 whole entry): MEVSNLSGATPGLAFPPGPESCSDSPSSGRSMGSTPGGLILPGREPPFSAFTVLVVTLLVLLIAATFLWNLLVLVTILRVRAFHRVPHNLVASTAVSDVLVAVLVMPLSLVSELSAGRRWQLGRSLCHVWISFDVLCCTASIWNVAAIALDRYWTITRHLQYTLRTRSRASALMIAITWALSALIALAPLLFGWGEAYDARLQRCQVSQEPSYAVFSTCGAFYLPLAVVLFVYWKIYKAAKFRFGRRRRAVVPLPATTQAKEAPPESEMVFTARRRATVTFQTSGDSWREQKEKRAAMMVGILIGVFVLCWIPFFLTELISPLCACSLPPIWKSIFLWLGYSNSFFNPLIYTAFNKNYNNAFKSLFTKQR
For the next test, the target named is T4, r GALR3 (Rattus norvegicus, UniProt O88626).
T4 sequence (O88626 1-370): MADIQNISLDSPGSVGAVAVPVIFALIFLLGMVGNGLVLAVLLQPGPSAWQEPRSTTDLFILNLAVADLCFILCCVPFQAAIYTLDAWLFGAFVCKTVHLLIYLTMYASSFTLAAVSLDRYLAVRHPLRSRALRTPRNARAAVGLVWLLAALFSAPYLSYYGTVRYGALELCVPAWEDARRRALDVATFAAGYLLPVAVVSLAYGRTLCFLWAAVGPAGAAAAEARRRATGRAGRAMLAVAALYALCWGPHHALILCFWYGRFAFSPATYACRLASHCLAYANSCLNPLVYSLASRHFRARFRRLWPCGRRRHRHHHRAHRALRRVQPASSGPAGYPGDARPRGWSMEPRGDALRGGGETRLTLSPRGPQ
The settings on record: r GALR3 + chimera in COS-7; agonist GAL, max 10 μM. In short, it runs like this:
as §1

Numbering of substitutions follows the chain as printed.

Sequence of h 5HT7 (P34969 whole entry): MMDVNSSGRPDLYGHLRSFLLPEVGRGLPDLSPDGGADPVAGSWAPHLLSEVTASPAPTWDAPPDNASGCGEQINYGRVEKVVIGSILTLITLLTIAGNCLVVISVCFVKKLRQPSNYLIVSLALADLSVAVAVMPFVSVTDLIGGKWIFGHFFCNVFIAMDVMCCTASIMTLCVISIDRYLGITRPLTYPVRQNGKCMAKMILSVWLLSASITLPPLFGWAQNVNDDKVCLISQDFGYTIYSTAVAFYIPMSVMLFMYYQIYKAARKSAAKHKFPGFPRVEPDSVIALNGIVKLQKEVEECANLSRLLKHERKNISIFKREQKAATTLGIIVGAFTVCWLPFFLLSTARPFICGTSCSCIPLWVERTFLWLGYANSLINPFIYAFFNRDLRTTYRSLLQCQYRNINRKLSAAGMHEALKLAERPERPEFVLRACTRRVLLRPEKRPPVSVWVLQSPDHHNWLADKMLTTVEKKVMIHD

B1: cGαq/z5: chimeric Gα subunit: C-terminal final 5 amino acids of C. elegans Gαq replaced with those of hGαz (SEQ ID NO: 1) (protein)
chain: MACCLSEEAREQKRINQEIEKQLQRDKRNARRELKLLLLGTGESGKSTFIKQMRIIHGQGYSEEDKRAHIRLVYQNVFMAIQSMIRAMDTLDIKFGNESEELQEKAAVVREVDFESVTSFEEPYVSYIKELWEDSGIQECYDRRREYQLTDSAKYYLSDLRRLAVPDYLPTEQDILRVRVPTTGIIEYPFDLEQIIFRMVDVGGQRSERRKWIHCFENVTSIMFLVALSEYDQVLVECDNENRMEESKALFRTIITYPWFTNSSVILFLNKKDLLEEKILYSHLADYFPEYDGPPRDPIAAREFILKMFVDLNPDADKIIYSHFTCATDTENIRFVFAAVKDTILQHNLKYIGLC
modifications: C. elegans
For the molecule B1, the “MAXIMAL SIGNAL (FLUORESCENCE UNITS)” value stood at 166 fluorescence units in the test with h 5HT7; 5470 fluorescence units in the test with h GALR2; 1523 fluorescence units with h GALR3; 9816 fluorescence units in the test with h α1A adr; 265 fluorescence units with m 5HT5B; 2298 fluorescence units in the test with r GALR3.

B2: cGαq/z9: C. elegans Gαq with Gαz portion of the C-terminal tail extended to 9 amino acids (SEQ ID NO: 2) (protein)
chain: B1 chain with H347N
modifications: C. elegans
For B2, the “MAXIMAL SIGNAL (FLUORESCENCE UNITS)” value with h 5HT7 was found to be 129 fluorescence units; with h GALR2, 4899 fluorescence units; with h GALR3, 2050 fluorescence units; with h α1A adr, 6597 fluorescence units; with m 5HT5B it was 443 fluorescence units; with r GALR3, 2971 fluorescence units.
